Patent US12728086B2, “Sunscreens derived from kynurenines and other UV-absorbing oxidized amino acids bound to peptides or polymers” (The Trustees of Princeton University, priority 2021, dated 2026)
Values joined by “and” are separate entries in the source; they are usually repeats but may differ in a detail not shown here. Equal values may be shown once.

Assay: UV-visible spectroscopy of oxidized or kynurenine-modified amino acids, peptides, proteins and polymers
Format: physicochemical
Experimental: A prototype of oxidized amino acid-bearing peptides from enzymatic hydrolysate of pea protein was made. […] More particularly, peptides derived from enzymatic hydrolysis of pea protein (Sigma, 16974) were oxidized in 50 mM sodium phosphate buffer at room temperature using ozone bubbled through the solution (A2Z Ozone Inc., MP1000).
A prototype of kynurenine-bearing polymers was produced from enzymatic hydrolysis of soy protein generating starting peptide material. The soluble peptides were then oxidized in a semi-sealed container into which ozone was pumped.
This was done with bovine serum albumin buffer exchanged with into 50 mM sodium phosphate pH 6.5 to remove small molecule impurities.
The polymeric lysine (8.8 mg) was suspended in 200 microliters of 50 mM sodium bicarbonate pH 9.5 and treated with DL-kynurenine (Sigma 61250) (~1 mM) for 44 hours at 37° C. in the dark. […] Controls of poly-lysine with no added kynurenine and that of kynurenine without poly-lysine were run concurrently. […] Soy peptides were used similarly, though they also contain other potential nucleophilic residues besides lysine to which kynurenine monomers could be added, including cysteine and histidine. These soy peptides were generated from overnight incubation at 37° C. of soy protein powder (5 g/100 mL deionized water) using porcine pepsin (0.5 mg/mL) all brought to pH 2.0 using hydrochloric acid. After this incubation, insoluble material was removed via centrifugation, and the clarified solution was brought to pH 9.5 using sodium hydroxide. This soy peptide solution was added in two parts to one part 50 mM sodium bicarbonate pH 9.5. To 1 mL of soy peptide solution was added 0.2 mL DLkynurenine (final 1 mM), and this was incubated for 44 hours at 37° C. in the dark. To isolate peptides from free kynurenine to determine if kynurenine monomers were added by UV-visible spectroscopy, small molecules and even some small peptides were removed with size exclusion (Sephadex G-50, GE Healthcare).

[1] = after treatment with ozone, UV-visible spectroscopy
[2] = after incubation with DL-kynurenine (44 hours, 37° C., pH 9.5) and size exclusion

| Molecule | region of increased absorbance [1] | region of increased absorbance [2] | wavelength of absorbance increase in the UVA [2] |
| --- | --- | --- | --- |
| bovine serum albumin: bovine serum albumin stirred under a stream of ozone for 8 hours | 300-350 nm | – | – |
| NC(CC(=O)c1ccccc1NC=O)C(=O)O (centres unmarked) [N-formyl kynurenine] | 300-350 nm | – | – |
| N[C@@H](Cc1c[nH]c2ccccc12)C(=O)O [L-tryptophan] | 300 to 400 nm and 300-400 nm | – | – |
| poly-L-lysine | – | 300-400 nm | around 360 nm |
